Data: paper PMC3701577, “Characterization of DNA Binding Property of the HIV-1 Host Factor and Tumor Suppressor Protein Integrase Interactor 1 (INI1/hSNF5)”

Experiments:
[1] = target: INI1 DNA binding domain (INI1/hSNF5 amino acids 105-183) (human) (UniProt Q12824); assay: AUC; sedimentation equilibrium, 60 µM INI1 DBD (monomer concentration), 4°C, 13,000-28,000 rpm, 20 mM HEPES-KOH pH 7.2, 100 mM KCl, 5-7% glycerol, 1 mM DTT, absorbance at 280 nm; species analysis in SEDPHAT
SNR1 DBD, SNR1(90-167) = target: T1, SNR1 DBD, SNR1(90-167) (Drosophila melanogaster, UniProt Q7K0F9 90-167); assay: Ni-NTA pull-down; 55 uM dimer, 110 uM DNA; ITC at 25 C (buffer not stated in material; protein dialyzed in 20 mM HEPES pH 7.2, 100 mM KCl, 10% glycerol, 0.1 mM EDTA, 1 mM DTT); pull-down in 20 mM HEPES pH 7.2, 100 mM KCl, 5% glycerol, 1 mM DTT, RT 30 min then ice; conditions: protein: recombinant; tags: His tag (pET28a), 37-aa N-terminal extension; chain copies: 2; 5' overhang 2 nt on strand 1 (AC)
T1 sequence: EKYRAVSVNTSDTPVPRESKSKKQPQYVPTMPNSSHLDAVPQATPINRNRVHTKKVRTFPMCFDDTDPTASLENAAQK

INI1 DBD, INI1(105-183) = INI1 DBD, INI1(105-183) (human, UniProt Q12824 105-183); assay: ITC; 10 uM monomer, 55 uM DNA in syringe; one-site, N=0.49; ITC at 25 C (buffer not stated in material; protein dialyzed in 20 mM HEPES pH 7.2, 100 mM KCl, 10% glycerol, 0.1 mM EDTA, 1 mM DTT); pull-down in 20 mM HEPES pH 7.2, 100 mM KCl, 5% glycerol, 1 mM DTT, RT 30 min then ice; conditions: protein: recombinant; tags: His tag (pET28a), 24-aa N-terminal extension; 5' overhang 2 nt on strand 1 (AC)
[2] = target: INI1 DBD dimer, INI1(105-183) (human, UniProt Q12824 105-183); assay: ITC; 30 uM dimer, 325 uM DNA in syringe; sequential model, first binding event; ITC at 25 C (buffer not stated in material; protein dialyzed in 20 mM HEPES pH 7.2, 100 mM KCl, 10% glycerol, 0.1 mM EDTA, 1 mM DTT); pull-down in 20 mM HEPES pH 7.2, 100 mM KCl, 5% glycerol, 1 mM DTT, RT 30 min then ice; conditions: protein: recombinant; tags: His tag (pET28a), 24-aa N-terminal extension; chain copies: 2; 5' overhang 2 nt on strand 1 (AC)
INI1 DBD dimer, INI1(105-183), sequence (Q12824 105-183): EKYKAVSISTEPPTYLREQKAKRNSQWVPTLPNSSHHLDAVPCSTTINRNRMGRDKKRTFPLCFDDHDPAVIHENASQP

INI1 DBD, INI1(105-183), sequence (Q12824 105-183): as above

Row | Molecule | stoichiometry N [1] | binding result (SNR1 DBD, SNR1(90-167)) | Kd (INI1 DBD, INI1(105-183)) [µM] | Kd [2] [µM]
1 | INI1 DNA binding domain (INI1/hSNF5 amino acids 105-183) (from UniProt Q12824 105-183) (domain or fragment) | 2 | – | – | –
2 | U5 HIV-1 LTR DNA (U5.4/U5.5) (dsDNA) DNA 1: ACTGCTAGAGATTTTCCGGATCC DNA 2: GGATCCGGAAAATCTCTAGCA | – | binds | 0.94 ± 0.02 | 222 ± 51.8
